Reference: patent US7056701

Biological target: formaldehyde-fixed human platelets
Assay: inhibition of vWF/botrocetin-induced agglutination of fixed human platelets

Row | IC50 | Substance
1 | < 10 nM | HSA-vWF 470-704 C471,474→G
2 | 20 nM | HSA-vWF 470-713 C471,474→G
